In patent publication US20110300138A1 (published 2011):

Molecular target: full length human TSHR with mutation Arg255 Asp (human) (UniProt P16473)
Assay: TSHR260-AP bridge ELISA, Arg255 Asp TSHR on wells; IgG at 0.005 µg/mL in HBD

M22 IgG (antibody), sequence (VH): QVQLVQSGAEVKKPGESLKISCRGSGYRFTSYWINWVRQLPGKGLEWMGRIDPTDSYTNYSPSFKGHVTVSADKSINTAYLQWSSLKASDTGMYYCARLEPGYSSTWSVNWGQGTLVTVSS
M22 IgG (antibody), sequence (V domain): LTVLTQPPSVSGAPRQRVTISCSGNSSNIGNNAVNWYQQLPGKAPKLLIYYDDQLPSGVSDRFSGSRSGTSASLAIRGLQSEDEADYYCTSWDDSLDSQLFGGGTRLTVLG

Substance | Mean absorbance at 405 nm (absorbance at 405 nm)
9D33 IgG (antibody) | 0.001
M22 IgG (antibody) | -0.007
